This note sets out measurements from publication PMC7851051.

Assay [1] deals with LLO118int single-chain TCR (scTCR), displayed on yeast (mouse). Briefly: flow cytometry on cells.
Assay [2] has the same target. Briefly: flow cytometry on cells. This is another data set of the same source.
The target in assay [3] is LLO118low single-chain TCR (scTCR), displayed on yeast (mouse). The experiment in a line: flow cytometry on cells. In general terms: A flow cytometer gives signals particle by particle.
The target of assay [4] is LLO56low single-chain TCR (scTCR), displayed on yeast (mouse). The experiment in a line: flow cytometry on cells.
Assay [5] has as its target LLO118_(high) single-chain TCR (scTCR), displayed on yeast (mouse). Briefly: flow cytometry on cells; scTCR displayed on yeast stained with LLO_(190-201)/I-A^b tetramer; histograms (Figure 1C).
The target of assay [6] is LLO56int single-chain TCR (scTCR), displayed on yeast (mouse). Described as above.
For assay [7] the target is unchanged. Briefly: flow cytometry on cells; tetramer decay on yeast-displayed scTCR as above, second round with lower levels of MHC inhibiting-antibody (Figure 2D); multivalent half-life.
Assay [8] addresses LLO118_(high) single-chain TCR (scTCR), displayed on yeast (mouse). The experiment in a line: flow cytometry on cells; tetramer decay on yeast-displayed scTCR: 6.5 µg/ml tetramer, 1.5 h, room temperature, washed, then anti-mouse MHC class II (M5/114.15.2) added and tetramer followed for 2-60 min; first round (Figure 2C); multivalent half-life.
Assay [9] concerns the target LLO56int single-chain TCR (scTCR), displayed on yeast (mouse). Described as above.
Assay [10] concerns the target LLO118_(high) single-chain TCR (scTCR), displayed on yeast (mouse). The experiment in a line: flow cytometry on cells; tetramer titration on yeast-displayed scTCR: 1x10^6 induced cells, 0.152 nM to 12.16 nM tetramer, 1.5 h, room temperature; MFI normalised; KD = 50% maximum binding concentration, one site-specific fit; multivalent avidity; percent of cells bound (Figure 2B).

Assay [11] deals with LLO56int single-chain TCR (scTCR), displayed on yeast (mouse). The assay is described as above.

Where two headings read alike, the source gives them in different places.

For the substance “LLO_(190-201)/I-A^b tetramer (peptide-MHC)”, the other was 6.7 min in [1], 24.5% in [2], 1.1% in assay [3] and 0.75% in assay [4]. Besides, the Kd in assay [2] was 44.8 nM; in [10], 7.33 nM; in assay [11], 39.2 nM. Moreover, the log better tetramer binding than LLO118int in assay [5] turned out to be 1 log. In assay [5], the log better tetramer binding than LLO118low was determined as 2.5 log. Moreover, the log better tetramer binding than LLO56low in assay [6] amounted to 1.5 log. The t1/2 in assay [7] worked out at 3.5 min; in assay [8] it was 165 m; in assay [9], 1 m. Also, the percent of cells bound by tetramer turned out to be 43.3% in [10] and 12.6% in assay [11].
